# Reference: the nanobody polyreactivity screen of Harvey et al. (2022)
# Experiment: yeast display, Sf9 membrane polyspecificity reagent, FACS + sequencing; frameworks hold sequencing errors
# Method in brief: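 Polyreactivity labels are assigned by the sorting gate from which each nanobody was recovered. The gates were low and high (top ~1%), set on anti-HA fluorescence for expression and streptavidin fluorescence for reagent binding. Before sorting, galactose-induced (36–48 hours) yeast display cells were stained for 1 hour at 4 °C with 10% biotinylated, detergent-solubilized Sf9 membrane reagent.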
row,Sequence,polyreactivity (PSR sort gate)
1,QVQLVESGGGLVQAGGSLRLSCAASGRIIASYAMGWNRHAPGKETELVAAISLSGGSTYYADSVKGRFTISRDNAKNTVYLQMNSLKPEDCAVYYCAAKNYRRYRDYYWGQGTQVSVSS,high polyreactivity
2,QVQLVESGGGLVQAGGSLRLSCAASGRIIAVNAKGWYRQAPGKERELVAAINGGGSTNYADSVKGRFTISRDNAKNTVYLQMNSLKPEDTAVYYCAADVGWRSQTRGYYWGQGTQVTVSS,high polyreactivity
3,QVQLVESGGGLVQAGGSLRLSCAASGRIIAYYAMGWYRQAPGKERELVAGINSGGGSTYYADSVKGRFTISRDNAKNTVYLQMNSLKPEDTAVYYCAARAGGVDGYDYWGQGTQVTVSS,high polyreactivity
4,QVQLVESGGGLVQAGGSLRLSCAASGRIIDFYTMGWYRQAPGKERELVAGINGSGASTYYADSVKGRFTISRDNAKNTVYLQMNCLKPEDTAVYYCAKDPGYYDDYDYWGQGTQVTVSS,low polyreactivity
5,QVQLVESGGGLVQAGGSLRLSCAASGRIIFHNAMGWYRQAPGKERELVASITSGDGTYYSDSVKGRFTISRDNAKNTVYLQMNSMKPEDTAVYYCAAEPGSIAYYYNRVGLYYWGQGTQVTVSS,low polyreactivity
6,QVQLVESGGGLVQAGGSLRLSCAASGRIIGLYARGWYRQAPGKERELVAAITWRGGRTYYADSVKGRFTISRDNAKNTVYVQMNRLSPEDTAVYYCAADLSNSLDYWGQGSQVTVSS,high polyreactivity
7,QVQLVESGGGLVQAGGSLRLSCAASGRIIGWYAMGRYRQAPGKERELVAAISQDATRTYYADSVKGRFTISRDNAKHTVYLQMNRLKPEDTAVYYCNVVYRYAGWSYDSWGQGTQVTVSS,high polyreactivity
8,QVQLVESGGGLVQAGGSLRLSCAASGRIIGYYAKGWYRQAPGKERELVAAISYSGGATYYADSVKGRFTISRDNEMNTVYLQSKSLKPEVTAVYYCAAQGRWPQRYGYWGQGTQVTVSS,high polyreactivity
9,QVQLVESGGGLVQAGGSLRLSCAASGRIIGYYAMGWYRQAPGKERELVAAISRRGGSTYYADSVKGRFTISRDNAKNTVYLQMNSLKPEDTAVYYCNADRVLTRPRYDYWGQGTQVTVSS,low polyreactivity
10,QVQLVESGGGLVQAGGSLRLSCAASGRIIGYYAMGWYRQAPGKEWELVAAITSSGSRTYYADSVKGRFTISRDNAKNTVYLQMNSLKPDDTAVYYCATTKVYYSAKSSYYYWGQGNQVTVSS,high polyreactivity
11,QVQLVESGGGLVQAGGSLRLSCAASGRIIKLYAMGWYRQAPGKEREFVAAITWSGGRTYYADSVKGRFTISRDNAKNTVYLQMNSLKPEDTAVYYCAAYDTYDWYDYWGQGTQVTVSS,high polyreactivity
12,QVQLVESGGGLVQAGGSLRLSCAASGRIIPNNAMGWYRQAPGKERELVAAITRGGTTYADSVKGRFTISRDNAKNTVYLQMNSLKPEDTAVYYCDTAAVKYGYRYYYWGQGTQVTVSS,high polyreactivity
13,QVQLVESGGGLVQAGGSLRLSCAASGRIIPRNAMGWYRQAPGKEMELVAGISRGGSTYYADSVKGRFTISRDNAKNTVYLQMNSLKTEDTAVYYCAAAYQKSPITPKMDYWGQGTQVTVSS,low polyreactivity
14,QVQLVESGGGLVQAGGSLRLSCAASGRIIQGYAIGWYRQAPGKERELVDAIRSGSGSTYYADSVKGRFTISRDNAKNTVYLQMNSLKPEDTAVYYCAADRYYWGQGTQVTVSS,low polyreactivity
15,QVQLVESGGGLVQAGGSLRLSCAASGRIIRINAMGSYRPAPGKERELVAAITRGGTTYADSVKGRFTISRDNAKNTVYLQMTSLIPEDTSVYNCNARTGRSPSGFRYWGQGTQVTVSS,high polyreactivity
16,QVQLVESGGGLVQAGGSLRLSCAASGRIIRINAMGWYRQAPGKERELVATISRSGGRTYYADSVKGRFTISRDNAKNTVYLQMNSLKPEDTAVYYCNADHFYYSSQYGYWGQGTQVTVSS,high polyreactivity
17,QVQLVESGGGLVQAGGSLRLSCAASGRIIRYYAMGWYRQAPGKEREFVATISSGGSTNYADSVKGRFTISRDNAKNTVYLQMNSLKPEDTAVYYCNRVYRRHVWGQGTQVTVSS,high polyreactivity
18,QVQLVESGGGLVQAGGSLRLSCAASGRIISRYTMGWSRQAPGKEREWVAGISRSGDRTYYADSVKGRFTISRDNAKNTVYLQMNSLKPEDTAVYSCNAGYWRFIDSYDYWGQGTQVTVSS,high polyreactivity
19,QVQLVESGGGLVQAGGSLRLSCAASGRIISYYAMGWYRQAPGKERELVAAISRSGGSTYYADSVKGRFTISRDNAKNTVYLQMNSLKPEDTAVYYCAKYFRPVQGDKWGFKYWGQGTQVTVSS,high polyreactivity
20,QVQLVESGGGLVQAGGSLRLSCAASGRIITYYAMGWYRQAPGKERELVAAITASGSRTYYADSVKGRFTISRDNAKNTVYLQMNSLKPEDTAVYYCAALSRLSPLSGSYYWGQGTQVTVSS,high polyreactivity
21,QVQLVESGGGLVQAGGSLRLSCAASGRIIYGNAMGWYRQAPGKERELVAAITSGGSTNYADSVKGRFTISRDNAKNTVYLQMNSLKPEDTAVYYCNAVVYSPYRYEYWGQGTQVTVSS,low polyreactivity

row,Sequence,polyreactivity (PSR sort gate)
1,QVQLVESGGGLVQAGGSLRLSCAASGRIIYGYAMGWDRQAPGKEREFVARINVSGTSTFYADSVKGRFTISRDNAKNTVYLQMNSLKTVDTAVYDCAARGLPSNYYYYVHGYIMDHWGQGTQVSVSS,low polyreactivity
2,QVQLVESGGGLVQAGGSLRLSCAASGRIIYIYAMGWYRQAPGKERELVAAITASSGSTNYADSVKGRFTISRDNAKNTVYLQLNSLKPEDTAVYYCAAAPSRTLLRQSKYYYWGQGTQVTVSS,low polyreactivity
3,QVQLVESGGGLVQAGGSLRLSCAASGRIIYKYAMGWYRQAPGKERELVAAISYSGGSTYYADSVKGRFTISRDNAKNTVYLQMKSLKPEDTAVYYCNAKPPYGVRSWGDYWGQGTQVNVSS,low polyreactivity
4,QVQLVESGGGLVQAGGSLRLSCAASGRIIYPNTMGWYRQAPGKERELVAAINRLGGSTYYADSVKGRFTISRDYAKNTVYLQMNSLIPEDTAVYYCAAYTTWTRSGYYDFTSYFWGQGTQVTVSS,high polyreactivity
5,QVQLVESGGGLVQAGGSLRLSCAASGRIIYPYALGWYRQAPGKERELVAAISSGSSTNYADSVKGRFTISRDNAKNTVYLQMNSLQPEDTAVYYCNADLVSGVVYDSDYWGQGTQVTVSS,low polyreactivity
6,QVQLVESGGGLVQAGGSLRLSCAASGRIIYRYAMGWYRQAPGKERELVATITWSTTSTYYADSVKGRFTISRDNAKNTVYLEMNSLKPEDTAVYYCASSIIPGFRRDPFGYWGQGTQVTVSS,low polyreactivity
7,QVQLVESGGGLVQAGGSLRLSCAASGRIIYTYAMAWYRQAPGKERELVAAISWSGGSTYYADSVKGRFTISRDNAKNTVYLQMNSMKPEDTAVYYCNAAYYGYENLSKRGYWGQGTQVTVSS,high polyreactivity
8,QVQLVESGGGLVQAGGSLRLSCAASGRIIYVNAMGWYRQAPGKERELVAAISSRGGTTYYADSVKGRFTISRDNAKNTVYLQMNSLKPEDTAVYYCNAGRVRHGNDYWGQGTQVTVSS,high polyreactivity
9,QVQLVESGGGLVQAGGSLRLSCAASGRIKGKNAMGWYRQAPGKERELVAAISSTGSTYYADSVKGRFSISRDNAKNTVYLQMNSLKPEDTAVYYCAATVEWWPGGWFDYWGQGTQVTVSS,high polyreactivity
10,QVQLVESGGGLVQAGGSLRLSCAASGRILAANAMGWYRQAPGKERELVAAISWSGGRTYYADSVKGRFTISRDNAKNTVYLQMNSLKPEDTAVYYCIKLALAGYDYWGQGTQVTVSS,high polyreactivity
11,QVQLVESGGGLVQAGGSLRLSCAASGRILASYAMGWYRQAPGKERELVAAIRYRGSTSYADSVKGRFTISRDNAKNTVYLQMNSLKPEDTAVYYCNAGLEYYYWGYTWEFDYWGQGTQVTVSS,low polyreactivity
12,QVQLVESGGGLVQAGGSLRLSCAASGRILASYAMGWYRQAPGKEWELVAAIRYRGSTSYADSVKGRFTISRDNAKNTVYLQMNSLKPEDTGVYYCAAKWHVRGRGARYRYDYDFWGQGTQVTVSS,low polyreactivity
13,QVQLVESGGGLVQAGGSLRLSCAASGRILATYTKGWYRPAPGKERELVATITSGGRTTYADSVKGRFTISRDNAKNTVYLQMNSLKPEDTAVYYCNVAYWYYRKYRPLWGRDYYWGQGTQVTVSS,high polyreactivity
14,QVQLVESGGGLVQAGGSLRLSCAASGRILCGNTMGWYRQAPGKERELVAAISWNGGGTYYADSVKGRFTISRDNAKNTVYLQMNSLKPEDTAVYYCAAYKEPYYEEYGYWGQGTQVTVSS,low polyreactivity
15,QVQLVESGGGLVQAGGSLRLSCAASGRILDGYAMGWYRQATGKERELVAAISRTGGGTYYADSVKGRFTISRDNSKNTVFLQMISLKPEDTAVYYCAKRRYYITLQADFDYWGQGTQVTVSS,low polyreactivity
16,QVQLVESGGGLVQAGGSLRLSCAASGRILDIYAMGWYRQAPGKDRELVAAINSDGRTYYADSVKGRFTISRDNAKNTVYLQMNSLKPEDTAVYYCNARHHNKVARFDYWGQGTQVTVSS,low polyreactivity
17,QVQLVESGGGLVQAGGSLRLSCAASGRILFGNMGWYRQAHGKERELVAAISRGTGSTDYADSVKGRFTISRDNAKNTVYLQMNSLKPEDTAVYYCYARSYRVHLHYWRKWEYDYWGQGTQVTVSS,high polyreactivity
18,QVQLVESGGGLVQAGGSLRLSCAASGRILGDNVMGWYRQAPGKERELVAAISSGSGSTYYADSVKGRFTISRDKAKNTVYLQMNSLKPEDTAVYYCAAGPYIYPGYDYWGQGTQVTVSS,low polyreactivity
19,QVQLVESGGGLVQAGGSLRLSCAASGRILGDYAMGWYRQAPGKEREFVAAIDYNGGSTNYADSVKGRFTISRDNAKNTVYLQMNSLKPEDTAVYYCAAPGFPSRNGFGYWGQGTQVTVSS,low polyreactivity
20,QVQLVESGGGLVQAGGSLRLSCAASGRILGLYAMGWYRQAPGKESELVAAISRGGGSTYYADSLKGRFTISRDNAKNTVYLQMNSLKPEDTAVYYCATGLGYFSRLDYWGQGTQVTVSS,low polyreactivity
